Measured values taken from US20110150870A1 (UNITED STATES OF AMERICA AS REPRESENTED BY TH, published 2011).

Target: T1, tetanus toxoid (UniProt P04958 2-1315)
T1 construct: also called TT
Assay: ELISA, 100 ng protein coated per well, anti-human Fab-HRP detection

T1 sequence (P04958 2-457 limits assumed, chain 1 of 2): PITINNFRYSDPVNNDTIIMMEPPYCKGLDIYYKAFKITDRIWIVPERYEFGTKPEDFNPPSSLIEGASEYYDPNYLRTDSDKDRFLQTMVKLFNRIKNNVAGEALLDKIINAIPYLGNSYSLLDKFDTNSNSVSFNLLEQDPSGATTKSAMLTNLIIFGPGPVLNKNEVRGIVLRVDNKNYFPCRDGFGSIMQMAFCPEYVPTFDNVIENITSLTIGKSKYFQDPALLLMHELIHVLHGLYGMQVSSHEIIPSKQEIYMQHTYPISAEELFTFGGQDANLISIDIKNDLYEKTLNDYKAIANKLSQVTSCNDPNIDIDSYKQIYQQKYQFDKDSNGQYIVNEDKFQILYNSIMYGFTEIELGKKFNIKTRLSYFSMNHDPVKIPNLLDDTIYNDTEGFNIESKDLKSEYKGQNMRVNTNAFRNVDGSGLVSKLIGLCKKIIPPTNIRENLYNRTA
T1 sequence (P04958 458-1315 limits assumed, chain 2 of 2): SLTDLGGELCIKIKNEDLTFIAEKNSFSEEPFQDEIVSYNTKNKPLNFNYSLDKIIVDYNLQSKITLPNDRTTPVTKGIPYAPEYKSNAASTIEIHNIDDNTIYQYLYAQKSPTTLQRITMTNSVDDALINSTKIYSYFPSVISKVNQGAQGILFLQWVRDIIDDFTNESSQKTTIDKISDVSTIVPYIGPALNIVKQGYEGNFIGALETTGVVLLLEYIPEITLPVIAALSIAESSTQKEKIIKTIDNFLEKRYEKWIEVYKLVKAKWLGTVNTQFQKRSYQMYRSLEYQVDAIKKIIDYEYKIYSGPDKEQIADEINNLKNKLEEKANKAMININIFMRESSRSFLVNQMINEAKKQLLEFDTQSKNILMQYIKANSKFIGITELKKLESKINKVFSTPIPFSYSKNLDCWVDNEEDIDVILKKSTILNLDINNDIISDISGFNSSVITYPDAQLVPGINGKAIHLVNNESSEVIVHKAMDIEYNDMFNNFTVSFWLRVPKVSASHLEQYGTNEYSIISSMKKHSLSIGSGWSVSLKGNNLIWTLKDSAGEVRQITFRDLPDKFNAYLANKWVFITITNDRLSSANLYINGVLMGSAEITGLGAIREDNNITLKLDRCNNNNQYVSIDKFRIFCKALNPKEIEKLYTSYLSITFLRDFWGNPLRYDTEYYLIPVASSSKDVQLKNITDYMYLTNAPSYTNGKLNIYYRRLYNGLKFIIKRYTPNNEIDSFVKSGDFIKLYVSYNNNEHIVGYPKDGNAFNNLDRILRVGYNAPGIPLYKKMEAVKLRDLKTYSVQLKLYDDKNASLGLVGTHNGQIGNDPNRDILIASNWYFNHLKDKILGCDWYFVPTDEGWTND

B1: KYK-2.0 Fab (Fab, V domains shown)
VH: QVQLVESGGGLVKPGGSLRLSCAASGFTFSSYGMHWVRQAPGKGLEWVAFIRYDGSNKYYADSVKGRFTISRDNSKNTKYLQMNSLRAEDTAVYYCAKDRGLGDGTYFDYWGQGTTVTVSS
VL: QSALTQPASVSGSPGQSITISCSGSSSNIGNNAVNWYQQLPGKAPKLLIYYDDLLPSGVSDRFSGSKSGTSAFLAISGLQSEDEADYYCAAWDDSLNGPVFGGGTKLTVL
notes: Human Fab (lambda) with human constant domains and a C-terminal (His)6 tag, expressed in E. coli from pC3C-His and purified by IMAC
B1: no binding.

B2: KYK-1.0 Fab (Fab, V domains shown)
VH: EVQLVESGGGVVQPGGSLRLSCAASGFTFSSYGMHWVRQAPGKGLEWVAFIRYDGSNKYYADSVKGRFTISRDNSKNTKYLQMNSLRAEDTAVYYCAKDRFGYYLDYWGQGTLVTVSS
VL: QPVLTQPSSVSVAPGETARIPCGGDDIETKSVHWYQQKPGQAPVLVIYDDDDRPSGIPERFFGSNSGNTATLSISRVEAGDEADYYCQVWDDNNDEWVFGGGTQLTVL
notes: Human Fab with human constant domains (lambda light chain) and a C-terminal (His)6 tag, expressed in E. coli from pC3C-His and purified by IMAC
B2: no binding.
